Data from patent US20200199241A1 (Chugai, published 2020).
Changes are numbered by the printed parent chain. In names and notes the source's numbering stands.

B1: IgG1-F373 (antibody)
heavy: QVQLQESGPGLVKPSETLSLTCAVSGHSISHDHAWSWVRQPPGEGLEWIGFISYSGITNYNPSLQGRVTISRDNSKNTLYLQMNSLRAEDTAVYYCARSLARTTAMDYWGEGTLVTVSSASTKGPSVFPLAPSSKSTSGGTAALGCLVKDYFPEPVTVSWNSGALTSGVHTFPAVLQSSGLYSLSSVVTVPSSSLGTQTYICNVNHKPSNTKVDKKVEPKSCDKTHTCPPCPAPELLGGPKVFLFPPKPKDTLWISRTPEVTCVVVDVSHEDPEVKFNWYVDGVEVHNAKTKPREEQYNSTYRVVSVLTPLHADWLNGKEYKCKVSNKALPAPIEKTISKAKGQPREPQVYTLPPSRDELTKNQVSLTCLVKGFYPSDIAVEWESNGQPENNYKTTPPVLDSDGSFFLYSKLTVDKSRWQQGNVFSCSVYHEALHYHYTQKSLSLSP
light: not shown
notes: EU numbering; copies: 2 + 2
B2: IgG1-F430 (antibody)
heavy: B1 heavy with K241S, W254Y, P259V, T309Q, P310V, A313Q
light: not shown
notes: EU numbering; copies: 2 + 2
B3: IgG1-F379 (antibody)
heavy: B1 heavy with T258E
light: not shown
notes: EU numbering; copies: 2 + 2
B4: IgG1-F397 (antibody)
heavy: B1 heavy with W254Y, D272F, T309Q, P310V, P389E, Y430I
light: not shown
notes: EU numbering; 'T370Q' as printed, probably T307Q; copies: 2 + 2
B5: IgG1-F438 (antibody)
heavy: B1 heavy with K241S, W254M, P259A, T309Q, P310V, A313Q
light: not shown
notes: EU numbering; copies: 2 + 2
B6: IgG1-F435 (antibody)
heavy: B1 heavy with K241S, W254M, P259V, T309Q, P310V, N327G, Y430F
light: not shown
notes: EU numbering; copies: 2 + 2
B7: IgG1-F388 (antibody)
heavy: B1 heavy with K241S, W254Y, L311A, A313Q, Y430M
light: not shown
notes: EU numbering; copies: 2 + 2
B8: IgG1-F420 (antibody)
heavy: B1 heavy with K241S, W254Y, T309A, P310V, A313H, P389E, Y430M
light: not shown
notes: EU numbering; copies: 2 + 2
B9: IgG1-F374 (antibody)
heavy: B1 heavy with T258E, A313Q
light: not shown
notes: EU numbering; copies: 2 + 2
B10: IgG1-F392 (antibody)
heavy: B1 heavy with W254Y, N288E, A313Q, Y430I
light: not shown
notes: EU numbering; copies: 2 + 2
B11: IgG1-F399 (antibody)
heavy: B1 heavy with W254Y, D272F, N288E, T309Q, A313Q, Y430I
light: not shown
notes: EU numbering; copies: 2 + 2
B12: IgG1-F395 (antibody)
heavy: B1 heavy with W254Y, T258E, A313Q, Y430M
light: not shown
notes: EU numbering; copies: 2 + 2
B13: IgG1-F436 (antibody)
heavy: B1 heavy with K241S, W254M, P259A, T309Q, P310V, A313Q, Y430V
light: not shown
notes: EU numbering; copies: 2 + 2
B14: IgG1-F396 (antibody)
heavy: B1 heavy with W254Y, D272F, N288E, T309Q, P310V, Y430I
light: not shown
notes: EU numbering; copies: 2 + 2
B15: IgG1-F381 (antibody)
heavy: B1 heavy with K241S, W254M, P259V, T309A, P310V, Y430L
light: not shown
notes: EU numbering; copies: 2 + 2
B16: IgG1-F437 (antibody)
heavy: B1 heavy with K241S, W254M, P259A, T309Q, P310V, A313Q, Y430M
light: not shown
notes: EU numbering; copies: 2 + 2
B17: IgG1-F416 (antibody)
heavy: B1 heavy with K241S, W254M, P259V, T309A, P310V, A313Q, P389E, Y430L
light: not shown
notes: EU numbering; copies: 2 + 2
B18: IgG1-F401 (antibody)
heavy: B1 heavy with W254Y, D272F, N288E, A313Q, P389E, Y430I
light: not shown
notes: EU numbering; 'N431Y' as printed, probably N434Y; copies: 2 + 2
B19: IgG1-F423 (antibody)
heavy: B1 heavy with K241S, W254Y, T309W, P310V, A313H, Y430M
light: not shown
notes: EU numbering; copies: 2 + 2
B20: IgG1-F426 (antibody)
heavy: B1 heavy with K241S, W254M, P259V, T309Q, P310V, A313Q, Y430M
light: not shown
notes: EU numbering; copies: 2 + 2
B21: IgG1-F408 (antibody)
heavy: B1 heavy with K241S, W254M, P259V, N288E, P310V, A313Q, Y430L
light: not shown
notes: EU numbering; copies: 2 + 2
B22: IgG1-F407 (antibody)
heavy: B1 heavy with K241S, W254M, P259V, T309Q, P310V, L311R, A313Q, Y430L
light: not shown
notes: EU numbering; copies: 2 + 2
B23: IgG1-F433 (antibody)
heavy: B1 heavy with K241S, W254M, P259V, T309Q, P310V, N327G, Y430M
light: not shown
notes: EU numbering; copies: 2 + 2
B24: IgG1-F386 (antibody)
heavy: B1 heavy with K241S, W254Y, L311E, A313Q, Y430M
light: not shown
notes: EU numbering; copies: 2 + 2
B25: IgG1-F427 (antibody)
heavy: B1 heavy with K241S, W254Y, P259V, T309Q, P310V, A313Q, Y430V
light: not shown
notes: EU numbering; copies: 2 + 2
B26: IgG1-F413 (antibody)
heavy: B1 heavy with K241S, W254M, P259V, T309P, P310V, A313Q, Y430L
light: not shown
notes: EU numbering; copies: 2 + 2
B27: IgG1-F403 (antibody)
heavy: B1 heavy with K241S, W254M, P259V, T309A, P310V, A313Q, Y430L, Y436W
light: not shown
notes: EU numbering; copies: 2 + 2
B28: IgG1-F389 (antibody)
heavy: B1 heavy with K241S, L311E, A313Q
light: not shown
notes: EU numbering; copies: 2 + 2
B29: IgG1-F394 (antibody)
heavy: B1 heavy with W254Y, T309Q, P310V, Y430I
light: not shown
notes: EU numbering; copies: 2 + 2
B30: IgG1-F405 (antibody)
heavy: B1 heavy with K241S, W254M, P259V, T309Q, P310V, L311P, A313Q, Y430L
light: not shown
notes: EU numbering; copies: 2 + 2
B31: IgG1-F377 (antibody)
heavy: B1 heavy with T309P, P310V, A313Q
light: not shown
notes: EU numbering; copies: 2 + 2
B32: IgG1-F432 (antibody)
heavy: B1 heavy with K241S, W254M, P259V, T309Q, P310V, N327G, Y430V
light: not shown
notes: EU numbering; copies: 2 + 2
B33: IgG1-F376 (antibody)
heavy: B1 heavy with W254Y, T258E, D272F, N288E, A313Q, Y430M
light: not shown
notes: EU numbering; copies: 2 + 2
B34: IgG1-F404 (antibody)
heavy: B1 heavy with K241S, W254M, P259A, T309Q, P310V, L311P, A313Q, Y430L
light: not shown
notes: EU numbering; 'M928L' read as M428L; copies: 2 + 2
B35: IgG1-F424 (antibody)
heavy: B1 heavy with W254M, P259A, A313Q, Y430L
light: not shown
notes: copies: 2 + 2
B36: IgG1-F409 (antibody)
heavy: B1 heavy with K241S, W254M, P259V, P310V, A313Q, P389E, Y430L
light: not shown
notes: EU numbering; copies: 2 + 2
B37: IgG1-F428 (antibody)
heavy: B1 heavy with K241S, W254Y, P259V, T309Q, P310V, A313Q, Y430L
light: not shown
notes: EU numbering; copies: 2 + 2
B38: IgG1-F391 (antibody)
heavy: B1 heavy with K241S, L311A, A313Q
light: not shown
notes: EU numbering; copies: 2 + 2
B39: IgG1-F418 (antibody)
heavy: B1 heavy with W254Y, T309P, P310V, A313Q, N327G
light: not shown
notes: EU numbering; copies: 2 + 2
B40: IgG1-F411 (antibody)
heavy: B1 heavy with K241S, W254M, P259V, T309N, P310V, A313Q, Y430L
light: not shown
notes: EU numbering; copies: 2 + 2
B41: IgG1-F415 (antibody)
heavy: B1 heavy with K241S, W254M, P259V, N288E, T309A, P310V, A313Q, Y430L
light: not shown
notes: EU numbering; copies: 2 + 2
B42: IgG1-F400 (antibody)
heavy: B1 heavy with W254Y, D272F, N288E, Y430I
light: not shown
notes: EU numbering; copies: 2 + 2
B43: IgG1-F412 (antibody)
heavy: B1 heavy with K241S, W254M, P259V, T309G, P310V, A313Q, Y430L
light: not shown
notes: EU numbering; copies: 2 + 2
B44: IgG1-F431 (antibody)
heavy: B1 heavy with K241S, W254Y, P259V, T309Q, P310V, A313Q, Y430F
light: not shown
notes: EU numbering; copies: 2 + 2
B45: IgG1-F375 (antibody)
heavy: B1 heavy with N288E, A313Q
light: not shown
notes: EU numbering; copies: 2 + 2
B46: IgG1-F425 (antibody)
heavy: B1 heavy with K241S, W254M, P259A, L311E, A313Q, Y430L
light: not shown
notes: EU numbering; copies: 2 + 2
B47: IgG1-F402 (antibody)
heavy: B1 heavy with K241S, W254M, P259V, T309Q, P310V, A313Q, Y430L, Y436W
light: not shown
notes: EU numbering; copies: 2 + 2
B48: IgG1-F390 (antibody)
heavy: B1 heavy with K241S, L311D, A313Q
light: not shown
notes: EU numbering; copies: 2 + 2
B49: IgG1-F387 (antibody)
heavy: B1 heavy with K241S, W254Y, L311D, A313Q, Y430M
light: not shown
notes: EU numbering; copies: 2 + 2
B50: IgG1-F422 (antibody)
heavy: B1 heavy with K241S, W254Y, T309A, P310V, A313H, E384A, Y430M
light: not shown
notes: EU numbering; copies: 2 + 2
B51: IgG1-F410 (antibody)
heavy: B1 heavy with K241S, W254M, P259V, T309H, P310V, A313Q, Y430L
light: not shown
notes: EU numbering; copies: 2 + 2
B52: IgG1-F439 (antibody)
heavy: B1 heavy with K241S, W254M, P259A, T309Q, P310V, A313Q, Y430F
light: not shown
notes: EU numbering; copies: 2 + 2
B53: IgG1-F406 (antibody)
heavy: B1 heavy with K241S, W254M, P259A, T309Q, P310V, L311R, A313Q, Y430L
light: not shown
notes: EU numbering; copies: 2 + 2
B54: IgG1-F380 (antibody)
heavy: B1 heavy with T258E, N288E, A313Q
light: not shown
notes: EU numbering; copies: 2 + 2
B55: IgG1-F429 (antibody)
heavy: B1 heavy with K241S, W254Y, P259V, T309Q, P310V, A313Q, Y430M
light: not shown
notes: EU numbering; copies: 2 + 2

Target: T1, human FcRn (soluble human FcRn complexed with β2-microglobulin) (human, UniProt P61769 21-119, limits assumed)
T1 construct: also called hFcRn
T1 sequence (chain, as listed by the source limits assumed, chain 1 of 2): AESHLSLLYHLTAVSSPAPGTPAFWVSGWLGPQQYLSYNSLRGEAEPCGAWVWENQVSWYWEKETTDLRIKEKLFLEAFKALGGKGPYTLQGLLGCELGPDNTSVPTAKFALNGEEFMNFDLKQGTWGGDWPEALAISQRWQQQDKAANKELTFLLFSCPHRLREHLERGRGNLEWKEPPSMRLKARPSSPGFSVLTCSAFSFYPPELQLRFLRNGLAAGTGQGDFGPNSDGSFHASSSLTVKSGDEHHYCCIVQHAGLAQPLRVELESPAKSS
T1 sequence (P61769 21-119 limits assumed, chain 2 of 2): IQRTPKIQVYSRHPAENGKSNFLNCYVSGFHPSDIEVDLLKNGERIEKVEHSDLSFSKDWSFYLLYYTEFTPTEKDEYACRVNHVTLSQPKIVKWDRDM
Test: SPR, pH 7.0;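 note: antibodies captured on a Protein L sensor chip with human FcRn injected as analyte, KD calculated from fitted association and dissociation rate constants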

Row | Binder | Kd
1 | B1 | 11 nM
2 | B2 | 81 nM
3 | B3 | 9 nM
4 | B4 | 45 nM
5 | B5 | 36 nM
6 | B6 | 25 nM
7 | B7 | 70 nM
8 | B8 | 150 nM
9 | B9 | 12 nM
10 | B10 | 6.9 nM
11 | B11 | 6.5 nM
12 | B12 | 24 nM
13 | B13 | 250 nM
14 | B14 | 20 nM
15 | B15 | 110 nM
16 | B16 | 57 nM
17 | B17 | 94 nM
18 | B18 | 6.9 nM
19 | B19 | 84 nM
20 | B20 | 84 nM
21 | B21 | 250 nM
22 | B22 | 160 nM
23 | B23 | 60 nM
24 | B24 | 32 nM
25 | B25 | 110 nM
26 | B26 | 120 nM
27 | B27 | 51 nM
28 | B28 | 17 nM

Row | Binder | Kd
29 | B29 | 53 nM
30 | B30 | 170 nM
31 | B31 | 130 nM
32 | B32 | 920 nM
33 | B33 | 9.6 nM
34 | B34 | 94 nM
35 | B35 | 94 nM
36 | B36 | 200 nM
37 | B37 | 80 nM
38 | B38 | 36 nM
39 | B39 | 620 nM
40 | B40 | 130 nM
41 | B41 | 56 nM
42 | B42 | 6.1 nM
43 | B43 | 88 nM
44 | B44 | 65 nM
45 | B45 | 5.5 nM
46 | B46 | 80 nM
47 | B47 | 23 nM
48 | B48 | 68 nM
49 | B49 | 150 nM
50 | B50 | 180 nM
51 | B51 | 220 nM
52 | B52 | 40 nM
53 | B53 | 150 nM
54 | B54 | 5.6 nM
55 | B55 | 37 nM
